The results in this text go back to patent publication US20110294738A1, “PTHR1 RECEPTOR COMPOUNDS” (priority 2008, published 2011).

Values joined by “and” are separate entries in the source; they are usually repeats but may differ in a detail not shown here. Equal values may be shown once. * marks the point of attachment. Palmitoyl = CCCCCCCCCCCCCCCC(=O)*

First the molecules themselves.
B1: Compound 53 (peptide)
peptide: Palmitoyl-KLRETNAGRSDTRQQY-NH2
SMILES: CCCCCCCCCCCCCCCC(=O)N[C@@H](CCCCN)C(=O)N[C@@H](CC(C)C)C(=O)N[C@@H](CCCNC(=N)N)C(=O)N[C@@H](CCC(=O)O)C(=O)N[C@H](C(=O)N[C@@H](CC(N)=O)C(=O)N[C@@H](C)C(=O)NCC(=O)N[C@@H](CCCNC(=N)N)C(=O)N[C@@H](CO)C(=O)N[C@@H](CC(=O)O)C(=O)N[C@H](C(=O)N[C@@H](CCCNC(=N)N)C(=O)N[C@@H](CCC(N)=O)C(=O)N[C@@H](CCC(N)=O)C(=O)N[C@@H](Cc1ccc(O)cc1)C(N)=O)[C@@H](C)O)[C@@H](C)O
B2: Compound 52 (peptide)
peptide: Palmitoyl-TNAGRSDTRQQYRKLLKSTL-NH2
SMILES: CCCCCCCCCCCCCCCC(=O)N[C@H](C(=O)N[C@@H](CC(N)=O)C(=O)N[C@@H](C)C(=O)NCC(=O)N[C@@H](CCCNC(=N)N)C(=O)N[C@@H](CO)C(=O)N[C@@H](CC(=O)O)C(=O)N[C@H](C(=O)N[C@@H](CCCNC(=N)N)C(=O)N[C@@H](CCC(N)=O)C(=O)N[C@@H](CCC(N)=O)C(=O)N[C@@H](Cc1ccc(O)cc1)C(=O)N[C@@H](CCCNC(=N)N)C(=O)N[C@@H](CCCCN)C(=O)N[C@@H](CC(C)C)C(=O)N[C@@H](CC(C)C)C(=O)N[C@@H](CCCCN)C(=O)N[C@@H](CO)C(=O)N[C@H](C(=O)N[C@@H](CC(C)C)C(N)=O)[C@@H](C)O)[C@@H](C)O)[C@@H](C)O
B3: Compound 10 (peptide)
peptide: Palmitoyl-LAYFRRLHSTRNYIHMH-NH2
SMILES: CCCCCCCCCCCCCCCC(=O)N[C@@H](CC(C)C)C(=O)N[C@@H](C)C(=O)N[C@@H](Cc1ccc(O)cc1)C(=O)N[C@@H](Cc1ccccc1)C(=O)N[C@@H](CCCNC(=N)N)C(=O)N[C@@H](CCCNC(=N)N)C(=O)N[C@@H](CC(C)C)C(=O)N[C@@H](Cc1c[nH]cn1)C(=O)N[C@@H](CO)C(=O)N[C@H](C(=O)N[C@@H](CCCNC(=N)N)C(=O)N[C@@H](CC(N)=O)C(=O)N[C@@H](Cc1ccc(O)cc1)C(=O)N[C@H](C(=O)N[C@@H](Cc1c[nH]cn1)C(=O)N[C@@H](CCSC)C(=O)N[C@@H](Cc1c[nH]cn1)C(N)=O)[C@@H](C)CC)[C@@H](C)O
B4: Compound 37 (peptide)
peptide: Palmitoyl-LHSLIFMAFFSEKKYLWGFT-NH2
SMILES: CCCCCCCCCCCCCCCC(=O)N[C@@H](CC(C)C)C(=O)N[C@@H](Cc1c[nH]cn1)C(=O)N[C@@H](CO)C(=O)N[C@@H](CC(C)C)C(=O)N[C@H](C(=O)N[C@@H](Cc1ccccc1)C(=O)N[C@@H](CCSC)C(=O)N[C@@H](C)C(=O)N[C@@H](Cc1ccccc1)C(=O)N[C@@H](Cc1ccccc1)C(=O)N[C@@H](CO)C(=O)N[C@@H](CCC(=O)O)C(=O)N[C@@H](CCCCN)C(=O)N[C@@H](CCCCN)C(=O)N[C@@H](Cc1ccc(O)cc1)C(=O)N[C@@H](CC(C)C)C(=O)N[C@@H](Cc1c[nH]c2ccccc12)C(=O)NCC(=O)N[C@@H](Cc1ccccc1)C(=O)N[C@H](C(N)=O)[C@@H](C)O)[C@@H](C)CC
B5: Compound 11 (peptide)
peptide: Palmitoyl-GSYFRRLHSTRNYIH-NH2
SMILES: CCCCCCCCCCCCCCCC(=O)NCC(=O)N[C@@H](CO)C(=O)N[C@@H](Cc1ccc(O)cc1)C(=O)N[C@@H](Cc1ccccc1)C(=O)N[C@@H](CCCNC(=N)N)C(=O)N[C@@H](CCCNC(=N)N)C(=O)N[C@@H](CC(C)C)C(=O)N[C@@H](Cc1c[nH]cn1)C(=O)N[C@@H](CO)C(=O)N[C@H](C(=O)N[C@@H](CCCNC(=N)N)C(=O)N[C@@H](CC(N)=O)C(=O)N[C@@H](Cc1ccc(O)cc1)C(=O)N[C@H](C(=O)N[C@@H](Cc1c[nH]cn1)C(N)=O)[C@@H](C)CC)[C@@H](C)O
B6: Compound 13 (peptide)
peptide: Palmitoyl-GGYFRRLHSTRNYIH-NH2
SMILES: CCCCCCCCCCCCCCCC(=O)NCC(=O)NCC(=O)N[C@@H](Cc1ccc(O)cc1)C(=O)N[C@@H](Cc1ccccc1)C(=O)N[C@@H](CCCNC(=N)N)C(=O)N[C@@H](CCCNC(=N)N)C(=O)N[C@@H](CC(C)C)C(=O)N[C@@H](Cc1c[nH]cn1)C(=O)N[C@@H](CO)C(=O)N[C@H](C(=O)N[C@@H](CCCNC(=N)N)C(=O)N[C@@H](CC(N)=O)C(=O)N[C@@H](Cc1ccc(O)cc1)C(=O)N[C@H](C(=O)N[C@@H](Cc1c[nH]cn1)C(N)=O)[C@@H](C)CC)[C@@H](C)O
B7: Compound 51 (peptide)
peptide: Palmitoyl-RETNAGRSDTRQQYRKLLKS-NH2
SMILES: CCCCCCCCCCCCCCCC(=O)N[C@@H](CCCNC(=N)N)C(=O)N[C@@H](CCC(=O)O)C(=O)N[C@H](C(=O)N[C@@H](CC(N)=O)C(=O)N[C@@H](C)C(=O)NCC(=O)N[C@@H](CCCNC(=N)N)C(=O)N[C@@H](CO)C(=O)N[C@@H](CC(=O)O)C(=O)N[C@H](C(=O)N[C@@H](CCCNC(=N)N)C(=O)N[C@@H](CCC(N)=O)C(=O)N[C@@H](CCC(N)=O)C(=O)N[C@@H](Cc1ccc(O)cc1)C(=O)N[C@@H](CCCNC(=N)N)C(=O)N[C@@H](CCCCN)C(=O)N[C@@H](CC(C)C)C(=O)N[C@@H](CC(C)C)C(=O)N[C@@H](CCCCN)C(=O)N[C@@H](CO)C(N)=O)[C@@H](C)O)[C@@H](C)O
B8: Compound 49 (peptide)
peptide: Palmitoyl-TNAGRSDTRQQRKLLKSTL-NH2
SMILES: CCCCCCCCCCCCCCCC(=O)N[C@H](C(=O)N[C@@H](CC(N)=O)C(=O)N[C@@H](C)C(=O)NCC(=O)N[C@@H](CCCNC(=N)N)C(=O)N[C@@H](CO)C(=O)N[C@@H](CC(=O)O)C(=O)N[C@H](C(=O)N[C@@H](CCCNC(=N)N)C(=O)N[C@@H](CCC(N)=O)C(=O)N[C@@H](CCC(N)=O)C(=O)N[C@@H](CCCNC(=N)N)C(=O)N[C@@H](CCCCN)C(=O)N[C@@H](CC(C)C)C(=O)N[C@@H](CC(C)C)C(=O)N[C@@H](CCCCN)C(=O)N[C@@H](CO)C(=O)N[C@H](C(=O)N[C@@H](CC(C)C)C(N)=O)[C@@H](C)O)[C@@H](C)O)[C@@H](C)O
B9: Compound 12 (peptide)
peptide: Palmitoyl-SSYFRRLHSTRNYIH-NH2
SMILES: CCCCCCCCCCCCCCCC(=O)N[C@@H](CO)C(=O)N[C@@H](CO)C(=O)N[C@@H](Cc1ccc(O)cc1)C(=O)N[C@@H](Cc1ccccc1)C(=O)N[C@@H](CCCNC(=N)N)C(=O)N[C@@H](CCCNC(=N)N)C(=O)N[C@@H](CC(C)C)C(=O)N[C@@H](Cc1c[nH]cn1)C(=O)N[C@@H](CO)C(=O)N[C@H](C(=O)N[C@@H](CCCNC(=N)N)C(=O)N[C@@H](CC(N)=O)C(=O)N[C@@H](Cc1ccc(O)cc1)C(=O)N[C@H](C(=O)N[C@@H](Cc1c[nH]cn1)C(N)=O)[C@@H](C)CC)[C@@H](C)O
B10: Compound 38 (peptide)
peptide: Palmitoyl-LYLHSLIFMAFFSEKKYLWG-NH2
SMILES: CCCCCCCCCCCCCCCC(=O)N[C@@H](CC(C)C)C(=O)N[C@@H](Cc1ccc(O)cc1)C(=O)N[C@@H](CC(C)C)C(=O)N[C@@H](Cc1c[nH]cn1)C(=O)N[C@@H](CO)C(=O)N[C@@H](CC(C)C)C(=O)N[C@H](C(=O)N[C@@H](Cc1ccccc1)C(=O)N[C@@H](CCSC)C(=O)N[C@@H](C)C(=O)N[C@@H](Cc1ccccc1)C(=O)N[C@@H](Cc1ccccc1)C(=O)N[C@@H](CO)C(=O)N[C@@H](CCC(=O)O)C(=O)N[C@@H](CCCCN)C(=O)N[C@@H](CCCCN)C(=O)N[C@@H](Cc1ccc(O)cc1)C(=O)N[C@@H](CC(C)C)C(=O)N[C@@H](Cc1c[nH]c2ccccc12)C(=O)NCC(N)=O)[C@@H](C)CC
B11: Compound 39 (peptide)
peptide: Palmitoyl-LYLHSLIFMAFFSEKKYL-NH2
SMILES: CCCCCCCCCCCCCCCC(=O)N[C@@H](CC(C)C)C(=O)N[C@@H](Cc1ccc(O)cc1)C(=O)N[C@@H](CC(C)C)C(=O)N[C@@H](Cc1c[nH]cn1)C(=O)N[C@@H](CO)C(=O)N[C@@H](CC(C)C)C(=O)N[C@H](C(=O)N[C@@H](Cc1ccccc1)C(=O)N[C@@H](CCSC)C(=O)N[C@@H](C)C(=O)N[C@@H](Cc1ccccc1)C(=O)N[C@@H](Cc1ccccc1)C(=O)N[C@@H](CO)C(=O)N[C@@H](CCC(=O)O)C(=O)N[C@@H](CCCCN)C(=O)N[C@@H](CCCCN)C(=O)N[C@@H](Cc1ccc(O)cc1)C(=O)N[C@@H](CC(C)C)C(N)=O)[C@@H](C)CC
B12: Compound 33 (peptide)
peptide: Palmitoyl-HSLIFMAFFSEKKYL-NH2
SMILES: CCCCCCCCCCCCCCCC(=O)N[C@@H](Cc1c[nH]cn1)C(=O)N[C@@H](CO)C(=O)N[C@@H](CC(C)C)C(=O)N[C@H](C(=O)N[C@@H](Cc1ccccc1)C(=O)N[C@@H](CCSC)C(=O)N[C@@H](C)C(=O)N[C@@H](Cc1ccccc1)C(=O)N[C@@H](Cc1ccccc1)C(=O)N[C@@H](CO)C(=O)N[C@@H](CCC(=O)O)C(=O)N[C@@H](CCCCN)C(=O)N[C@@H](CCCCN)C(=O)N[C@@H](Cc1ccc(O)cc1)C(=O)N[C@@H](CC(C)C)C(N)=O)[C@@H](C)CC

PTHR1 receptor, sequence (P25961 whole entry): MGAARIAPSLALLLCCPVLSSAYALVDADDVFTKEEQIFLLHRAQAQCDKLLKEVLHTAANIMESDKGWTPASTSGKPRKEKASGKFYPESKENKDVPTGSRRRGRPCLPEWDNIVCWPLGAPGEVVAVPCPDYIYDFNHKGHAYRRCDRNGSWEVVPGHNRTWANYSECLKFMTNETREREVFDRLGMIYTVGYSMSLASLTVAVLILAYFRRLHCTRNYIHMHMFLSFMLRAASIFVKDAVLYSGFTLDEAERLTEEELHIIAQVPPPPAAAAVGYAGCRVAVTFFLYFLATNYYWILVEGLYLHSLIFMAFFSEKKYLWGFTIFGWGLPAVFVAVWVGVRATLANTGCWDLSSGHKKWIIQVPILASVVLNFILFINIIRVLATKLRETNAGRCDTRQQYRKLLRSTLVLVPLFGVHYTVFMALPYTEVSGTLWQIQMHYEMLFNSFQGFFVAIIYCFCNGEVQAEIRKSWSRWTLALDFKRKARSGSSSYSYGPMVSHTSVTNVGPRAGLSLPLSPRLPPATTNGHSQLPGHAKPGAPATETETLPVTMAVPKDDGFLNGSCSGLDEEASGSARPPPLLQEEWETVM

This assay has as its target PTHR1 receptor.
Regarding B1, the Fold Shift of EC50 stood at 2.1 fold and the Inhibition of Maximal Response amounted to 6.4%.

For B2, the Fold Shift of EC50 is 11.1 fold and the Inhibition of Maximal Response worked out at 1.7%.

On to B3, for which the Fold Shift of EC50 was 1.1 fold and the Inhibition of Maximal Response stood at 24.1%.

For B4, the Fold Shift of EC50 was 1.1 fold and the Inhibition of Maximal Response amounted to 35.6%.

Regarding B5, the Fold Shift of EC50 worked out at 1.1 fold and the Inhibition of Maximal Response was determined as 19.8%.

Take B6: the Fold Shift of EC50 was determined as 0.7 fold and the Inhibition of Maximal Response turned out to be 29.2%.

Regarding B7, the Fold Shift of EC50 worked out at 12.4 fold and the Inhibition of Maximal Response is -0.015.

With B8, the Fold Shift of EC50 is 1.5 fold and 2.3 fold.

For B9, the Fold Shift of EC50 came out at 0.9 fold and the Inhibition of Maximal Response is 26.6%.

Regarding B10, the Fold Shift of EC50 was determined as 1.1 fold and the Inhibition of Maximal Response was determined as 21.9%.

As to B11, the Fold Shift of EC50 turned out to be 1.3 fold and the Inhibition of Maximal Response came out at 29.3%.

In the case of B12, the Fold Shift of EC50 is 1.1 fold and the Inhibition of Maximal Response was 27.5%.
